The results in this text go back to article PMC5768706, “Structural basis for chitin acquisition by marine Vibrio species” (Nature Communications, 2018).

Assay [1] concerns the target T1, VhChiP (OM-expressed, native) (Vibrio harveyi, UniProt L0RVU0).
T1 construct: gene chiP; full-length mature protein after signal peptide processing, no His-tag, pET23d(+), expressed in outer membrane of E. coli BL21(DE3) omp8 rosetta, homotrimer
T1 sequence (L0RVU0 26-375): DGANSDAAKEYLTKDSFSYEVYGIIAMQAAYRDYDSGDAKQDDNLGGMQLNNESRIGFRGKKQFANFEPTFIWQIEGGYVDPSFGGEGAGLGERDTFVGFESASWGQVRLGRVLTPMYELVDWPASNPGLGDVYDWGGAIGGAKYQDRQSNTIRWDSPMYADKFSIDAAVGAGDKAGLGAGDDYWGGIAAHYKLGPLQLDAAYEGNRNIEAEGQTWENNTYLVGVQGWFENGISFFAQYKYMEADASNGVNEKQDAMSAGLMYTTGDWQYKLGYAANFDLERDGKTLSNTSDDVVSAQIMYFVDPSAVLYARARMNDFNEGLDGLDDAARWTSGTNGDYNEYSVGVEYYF
In words: X-ray crystal structure of co-crystals. In kind it is binding. The note with it: 10 mM GlcNAc4, 0.1 M MES pH 6.5, 28% PEG 400.

The target in assay [2] is in vitro-folded VhChiP (Vibrio harveyi). As to the kind of experiment: crystal structure; in vitro-folded SeMet VhChiP, ~12 mg/mL, 0.4% C8E4; crystal form I P2_(1): 30% PEG 400, 0.05 M NaCl, 0.1 M sodium citrate pH 5.5; crystal form II: 28% PEG 400, 0.5 M potassium iodide, 0.1 M Tris pH 8.5.
For assay [3] the target is unchanged. As to the kind of experiment: SDS-PAGE of non-boiled and boiled samples; purified protein loaded non-boiled and boiled; heat-modifiable mobility.
Assay [4] deals with T1, VhChiP (OM-expressed, native). In words: single-channel electrophysiology, planar lipid bilayer, ion current block titration. The note with it: 1 M KCl, 20 mM HEPES pH 7.5, 25 °C, -100 mV, sugar on cis side; range printed jointly for both full-length channels. In kind it is binding.
The target of assay [5] is OM-expressed VhChiP (chitoporin from Vibrio harveyi) (Vibrio harveyi). As to the kind of experiment: SDS-PAGE of non-boiled and boiled samples; purified protein loaded non-boiled and boiled; heat-modifiable mobility.
The target is the same in assay [6]. In words: crystal structure; OM-expressed VhChiP, 10 mg/mL, 0.4% C8E4; space group C2: 28% PEG 400, 0.2 M sodium acetate, 0.1 M MES pH 6.5.

Regarding `CC(=O)N[C@H]1[C@H](O[C@H]2[C@H](O)[C@@H](NC(C)=O)C(O)O[C@@H]2CO)O[C@H](CO)[C@@H](O[C@@H]2O[C@H](CO)[C@@H](O[C@@H]3O[C@H](CO)[C@@H](O)[C@H](O)[C@H]3NC(C)=O)[C@H](O)[C@H]2NC(C)=O)[C@@H]1O` (stereo partly drawn) [chitotetraose], the “X-ray crystal structure of co-crystals” value in assay [1] is on record as “we co-crystallized OM-expressed VhChiP with chitotetraose (GlcNAc4)”.

As a reminder, the stoichiometry N is a count of units in the complex or per binding partner. In the case of “in vitro-folded VhChiP (natural protein)”, the stoichiometry N in assay [2] and in assay [3] was 3 each time.

For the compound `CC(=O)N[C@H]1[C@H](O[C@H]2[C@H](O)[C@@H](NC(C)=O)[C@H](O[C@H]3[C@H](O)[C@@H](NC(C)=O)C(O)O[C@@H]3CO)O[C@@H]2CO)O[C@H](CO)[C@@H](O[C@@H]2O[C@H](CO)[C@@H](O[C@@H]3O[C@H](CO)[C@@H](O[C@@H]4O[C@H](CO)[C@@H](O)[C@H](O)[C@H]4NC(C)=O)[C@H](O)[C@H]3NC(C)=O)[C@H](O)[C@H]2NC(C)=O)[C@@H]1O` (stereo partly drawn) [chitohexaose], in assay [4], the K is reported as 2–5 × 10^5.

In the case of “OM-expressed VhChiP (chitoporin from Vibrio harveyi) (natural protein)”, the stoichiometry N in assay [5] and in assay [6] was 3 throughout.
